The results in this text go back to article PMC314469, “Protein Interaction Networks by Proteome Peptide Scanning” (PLoS Biology, 2004).

T1: amphyphisin SH3 (AMPH_HUMAN), P49418
T1 chain: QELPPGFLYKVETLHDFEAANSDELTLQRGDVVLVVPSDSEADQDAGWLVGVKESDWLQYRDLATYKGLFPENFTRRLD

The target in the first assay is T1, amphyphisin SH3 (AMPH_HUMAN), P49418. Briefly: SPOT array.
The molecule IDPAILRPGRLDQL [P55072 629-642] showed a normalised SPOT signal, Boehringer light units (BLU); mean over the file's lines of this peptide of 304.

In turn, IGRNIARPWKLIYY [Q15361 592-605] displayed a normalised SPOT signal, Boehringer light units (BLU); mean over the file's lines of this peptide of 205.

In turn, IIRPPVRPPDPPSR [O60890 736-750] registered a normalised SPOT signal, Boehringer light units (BLU); mean over the file's lines of this peptide of 3250.

IGVSPGRPGKSVLF [Q92918 675-688] gave a normalised SPOT signal, Boehringer light units (BLU); mean over the file's lines of this peptide of 131.

On to IDPALLRPGRLDKS [O43933 989-1002], for which the normalised SPOT signal, Boehringer light units (BLU); mean over the file's lines of this peptide came to 619.

In turn, IEPQIRRPRSLSSP [O43165 457-470] showed a normalised SPOT signal, Boehringer light units (BLU); mean over the file's lines of this peptide of 113.

As for ISQKIKRPANSGEL [Q9H4G7 129-142], the normalised SPOT signal, Boehringer light units (BLU); mean over the file's lines of this peptide worked out at 45.6.

For the molecule IIHVISRPLKAPPA [Q9NRY3 784-797], the normalised SPOT signal, Boehringer light units (BLU); mean over the file's lines of this peptide turned out to be 83.7.

As for ALQPPRRPKSSNPF [Q9Y6N1 67-80], the normalised SPOT signal, Boehringer light units (BLU); mean over the file's lines of this peptide was found to be 140.

In turn, IHSDPLRPRRETSH [P20849 240-253] yielded a normalised SPOT signal, Boehringer light units (BLU); mean over the file's lines of this peptide of 5480.

As to IEEVPPRPPSPPKK [Q16348 18-32], the normalised SPOT signal, Boehringer light units (BLU); mean over the file's lines of this peptide amounted to 225.

ALQSPKRPRSPGSN [P78347 665-678] displayed a normalised SPOT signal, Boehringer light units (BLU); mean over the file's lines of this peptide of 31.5.

IDEALLRPGRLEVK [P46459 379-392]: the normalised SPOT signal, Boehringer light units (BLU); mean over the file's lines of this peptide turned out to be 370.

ISHLPSRPVKPNII [Q9BZQ1 159-172] showed a normalised SPOT signal, Boehringer light units (BLU); mean over the file's lines of this peptide of 97.4.

In the case of IFDGIQRPLKDINE [P38607 97-110], the normalised SPOT signal, Boehringer light units (BLU); mean over the file's lines of this peptide amounted to 81.7.

Take IDPAILRPGRPDQL [Q9HAP0 257-270]: the normalised SPOT signal, Boehringer light units (BLU); mean over the file's lines of this peptide worked out at 220.

In the case of IIRQIRRPKNVVLR [O94887 105-118], the normalised SPOT signal, Boehringer light units (BLU); mean over the file's lines of this peptide is 15.8.

As to IDPALRRPGRFDRE [Q96IW6 580-593], the normalised SPOT signal, Boehringer light units (BLU); mean over the file's lines of this peptide stood at 314.

IFSTLKRPQVETKT [Q96NM3 19-32] gave a normalised SPOT signal, Boehringer light units (BLU); mean over the file's lines of this peptide of 39.7.

Take IDPAILRPGRLDKT [O15381 730-743]: the normalised SPOT signal, Boehringer light units (BLU); mean over the file's lines of this peptide is 317.

As to IFVAPKRPSPLPRA [Q9NZP6 64-77], the normalised SPOT signal, Boehringer light units (BLU); mean over the file's lines of this peptide amounted to 4170.

Molecule IGYDFRRPLAQLRE [O60288 996-1009] returned a normalised SPOT signal, Boehringer light units (BLU); mean over the file's lines of this peptide of 41.5.

ISTKLVRPKRKHGT [P42679 203-216] had a normalised SPOT signal, Boehringer light units (BLU); mean over the file's lines of this peptide of 2410.

In the case of IIQELRRPKYTIYF [Q9Y4Z6 82-95], the normalised SPOT signal, Boehringer light units (BLU); mean over the file's lines of this peptide was 32.

Turning to IIPSPKRPVKLLSG [P04114 925-938], the normalised SPOT signal, Boehringer light units (BLU); mean over the file's lines of this peptide is 73.4.

Turning to IFGPLKRPIVEFSL [Q9NW13 566-579], the normalised SPOT signal, Boehringer light units (BLU); mean over the file's lines of this peptide was found to be 27.1.

ISPEFKRPRDIAVD [Q9NZR2 3964-3977] had a normalised SPOT signal, Boehringer light units (BLU); mean over the file's lines of this peptide of 30.4.

IFMYLRRPTEESVE [Q96RC0 189-202]: the normalised SPOT signal, Boehringer light units (BLU); mean over the file's lines of this peptide turned out to be 111.

Another assay addresses endophilin SH3 (SH3G2_HUMAN), Q99962. Briefly: SPOT array.
In turn, IDPAILRPGRLDQL [P55072 629-642] showed a normalised SPOT signal, Boehringer light units (BLU); mean over the file's lines of this peptide of 87.

Take IGRNIARPWKLIYY [Q15361 592-605]: the normalised SPOT signal, Boehringer light units (BLU); mean over the file's lines of this peptide was found to be 314.

Take IIRPPVRPPDPPSR [O60890 736-750]: the normalised SPOT signal, Boehringer light units (BLU); mean over the file's lines of this peptide turned out to be 3430.

For IGVSPGRPGKSVLF [Q92918 675-688], the normalised SPOT signal, Boehringer light units (BLU); mean over the file's lines of this peptide amounted to 128.

IDPALLRPGRLDKS [O43933 989-1002] displayed a normalised SPOT signal, Boehringer light units (BLU); mean over the file's lines of this peptide of 0.

IEPQIRRPRSLSSP [O43165 457-470] yielded a normalised SPOT signal, Boehringer light units (BLU); mean over the file's lines of this peptide of 365.

The molecule ISQKIKRPANSGEL [Q9H4G7 129-142] had a normalised SPOT signal, Boehringer light units (BLU); mean over the file's lines of this peptide of 24.2.

IIHVISRPLKAPPA [Q9NRY3 784-797]: the normalised SPOT signal, Boehringer light units (BLU); mean over the file's lines of this peptide came out at 71.7.

With ALQPPRRPKSSNPF [Q9Y6N1 67-80], the normalised SPOT signal, Boehringer light units (BLU); mean over the file's lines of this peptide was 22500.

For the molecule IHSDPLRPRRETSH [P20849 240-253], the normalised SPOT signal, Boehringer light units (BLU); mean over the file's lines of this peptide came out at 1340.

For the molecule IEEVPPRPPSPPKK [Q16348 18-32], the normalised SPOT signal, Boehringer light units (BLU); mean over the file's lines of this peptide was determined as 4240.

Consider ALQSPKRPRSPGSN [P78347 665-678], for which the normalised SPOT signal, Boehringer light units (BLU); mean over the file's lines of this peptide worked out at 256.

The molecule IDEALLRPGRLEVK [P46459 379-392] returned a normalised SPOT signal, Boehringer light units (BLU); mean over the file's lines of this peptide of 0.

Consider ISHLPSRPVKPNII [Q9BZQ1 159-172], for which the normalised SPOT signal, Boehringer light units (BLU); mean over the file's lines of this peptide came out at 120.

IFDGIQRPLKDINE [P38607 97-110] returned a normalised SPOT signal, Boehringer light units (BLU); mean over the file's lines of this peptide of 127.

On to IDPAILRPGRPDQL [Q9HAP0 257-270], for which the normalised SPOT signal, Boehringer light units (BLU); mean over the file's lines of this peptide worked out at 169.

Molecule IIRQIRRPKNVVLR [O94887 105-118] showed a normalised SPOT signal, Boehringer light units (BLU); mean over the file's lines of this peptide of 49.2.

For IDPALRRPGRFDRE [Q96IW6 580-593], the normalised SPOT signal, Boehringer light units (BLU); mean over the file's lines of this peptide is 108.

Consider IFSTLKRPQVETKT [Q96NM3 19-32], for which the normalised SPOT signal, Boehringer light units (BLU); mean over the file's lines of this peptide was 36.9.

IDPAILRPGRLDKT [O15381 730-743] displayed a normalised SPOT signal, Boehringer light units (BLU); mean over the file's lines of this peptide of 225.

As to IFVAPKRPSPLPRA [Q9NZP6 64-77], the normalised SPOT signal, Boehringer light units (BLU); mean over the file's lines of this peptide is 7170.

For the molecule IGYDFRRPLAQLRE [O60288 996-1009], the normalised SPOT signal, Boehringer light units (BLU); mean over the file's lines of this peptide is 205.

Molecule ISTKLVRPKRKHGT [P42679 203-216] registered a normalised SPOT signal, Boehringer light units (BLU); mean over the file's lines of this peptide of 97.8.

On to IIQELRRPKYTIYF [Q9Y4Z6 82-95], for which the normalised SPOT signal, Boehringer light units (BLU); mean over the file's lines of this peptide was 134.

In turn, IIPSPKRPVKLLSG [P04114 925-938] displayed a normalised SPOT signal, Boehringer light units (BLU); mean over the file's lines of this peptide of 1060.

Take IFGPLKRPIVEFSL [Q9NW13 566-579]: the normalised SPOT signal, Boehringer light units (BLU); mean over the file's lines of this peptide worked out at 61.9.

ISPEFKRPRDIAVD [Q9NZR2 3964-3977] returned a normalised SPOT signal, Boehringer light units (BLU); mean over the file's lines of this peptide of 14.9.

In turn, IFMYLRRPTEESVE [Q96RC0 189-202] returned a normalised SPOT signal, Boehringer light units (BLU); mean over the file's lines of this peptide of 165.
